First the molecules themselves.
B1: Proto-oncogene vav, residues 782 to 842; numbered along this chain, P15498 (parent)
chain: KYFGTAKARYDFCARDRSELSLKEGDIIKILNKKGQQGWWRGEIYGRVGWFPANYVEEDYS

Among the data in the Human Domainome abundance scans (Beltran et al. 2025) are abundance fitness values, retold here.

± gives the uncertainty stated by the source.

This data set covers variants of B1. Description: abundance fitness (aPCA) (normalised: wild type 0, dead -1); higher = more abundant; growth selection in yeast, the domain comes from the species named. Conditions: Homo sapiens.
For KYFGTAKARYDFCARDRSELSLKEGDIIKILNKKGQQGWWRGRIYGRVGWFPANYVEEDYS [E43R], the abundance fitness is -0.31 ± 0.076.
Consider KYFGTAKARYDFCARDRSELSLKEGDIIKILNKKGQQGWWRGLIYGRVGWFPANYVEEDYS [E43L], for which the abundance fitness was -0.525 ± 0.086.
Take KYFGTAKARYDFCARDRSELSLKEGDIIKILNKKGQQGWWRGMIYGRVGWFPANYVEEDYS [E43M]: the abundance fitness is -0.389 ± 0.12.
On to KYFGTAKARYDFCARDRSELSLKEGDIIKILNMKGQQGWWRGEIYGRVGWFPANYVEEDYS [K33M], for which the abundance fitness is -0.804 ± 0.23.
Under KYFGTAKARYDFCARDRSELSLKEGDIIKILNPKGQQGWWRGEIYGRVGWFPANYVEEDYS [K33P] stands -0.41 ± 0.12; under KYFGTAKARYDFCARDRSELSLKEGDIIKILNKKGQQGWWRGEIYGRVGWFPANCVEEDYS [Y55C], 0.093 ± 0.11.
As to KYFGTAKARYDFCARDRSELSLKEGDIIKILNKKGQQGWWRGEIYVRVGWFPANYVEEDYS [G46V], the abundance fitness is -0.748 ± 0.073.
KYFGTAKARYDFCARDRSELSLKEGDIIKILNKKGQQGWWRGEIYDRVGWFPANYVEEDYS [G46D]: the abundance fitness was -0.19 ± 0.098.
As to KYFGTAKARYDFCARDRSELSLKEGDIIKILNKKGQQGWWRGEIYFRVGWFPANYVEEDYS [G46F], the abundance fitness is -0.942 ± 0.14.
KYFGTAKARYDFCARDRSELSLGEGDIIKILNKKGQQGWWRGEIYGRVGWFPANYVEEDYS [K23G]: the abundance fitness was -0.815 ± 0.16.
In the case of KYFGTAKARYDFCARDRSELSLEEGDIIKILNKKGQQGWWRGEIYGRVGWFPANYVEEDYS [K23E] it was -0.613 ± 0.31; in that of KYFGTAKARYDFCARDRSELSLKEGDIIKILNKKGQQGWWRGEHYGRVGWFPANYVEEDYS [I44H], -0.025 ± 0.21; in that of KYFGTAKARYDFCARDRSELSLKEGDIIKILNKKGQQGWWRGEDYGRVGWFPANYVEEDYS [I44D], -0.486 ± 0.16.
Regarding KYFGTAKARYDFCARDRSELSLKEGDIIKILNKKGQQGWWRGEYYGRVGWFPANYVEEDYS [I44Y], the abundance fitness is -0.425 ± 0.17.
For the variant KYFGTAKARYDFVARDRSELSLKEGDIIKILNKKGQQGWWRGEIYGRVGWFPANYVEEDYS [C13V], the abundance fitness is 0.1 ± 0.054.
For KYFGTAKARYDFMARDRSELSLKEGDIIKILNKKGQQGWWRGEIYGRVGWFPANYVEEDYS [C13M], the abundance fitness was -0.119 ± 0.086.
Consider KYFGTAKARYDFTARDRSELSLKEGDIIKILNKKGQQGWWRGEIYGRVGWFPANYVEEDYS [C13T], for which the abundance fitness turned out to be 0.146 ± 0.1.
Under KYFGTAKARYQFCARDRSELSLKEGDIIKILNKKGQQGWWRGEIYGRVGWFPANYVEEDYS [D11Q] stands -0.363 ± 0.14; under KYFGTAKARYDFCARDRSELSLKEGDIIKILNKKGQQGWWRGEIFGRVGWFPANYVEEDYS [Y45F], 0.085 ± 0.17; under KYFGTAKARYDECARDRSELSLKEGDIIKILNKKGQQGWWRGEIYGRVGWFPANYVEEDYS [F12E], -1.01 ± 0.29.
In the case of KYFGTAKARYDFCARDRSELSLKAGDIIKILNKKGQQGWWRGEIYGRVGWFPANYVEEDYS [E24A] it was 0.082 ± 0.062.
Consider KYFGTAKARYDFCARDRSELSLKRGDIIKILNKKGQQGWWRGEIYGRVGWFPANYVEEDYS [E24R], for which the abundance fitness amounted to 0.068 ± 0.051.
As to KYFGTAKARYDFCARKRSELSLKEGDIIKILNKKGQQGWWRGEIYGRVGWFPANYVEEDYS [D16K], the abundance fitness is -0.174 ± 0.12.
Under KYFGTAKARYDFCARDRAELSLKEGDIIKILNKKGQQGWWRGEIYGRVGWFPANYVEEDYS [S18A] stands 0.064 ± 0.08; under KYFGTAKARYDFCARDRSELSLKEGDIIKILNKKGQQGWWRGEIYGRVGWFPANYVEEDYW [S61W], -0.084 ± 0.17; under KYFGTAKARYDFCARDRSELSLKEGDIIKILNKKGQQGWWRGEIYGRVGWFPANYVEEDYD [S61D], -0.208 ± 0.4.
In the case of KYFGTAKARYDFCARDRSELSLKEGDIIKILNKKGQQGWWRGEIYGRVGWFPANYVEEDYF [S61F] it was -0.28 ± 0.16; in that of KYFGKAKARYDFCARDRSELSLKEGDIIKILNKKGQQGWWRGEIYGRVGWFPANYVEEDYS [T5K], -0.468 ± 0.14; in that of KYFGPAKARYDFCARDRSELSLKEGDIIKILNKKGQQGWWRGEIYGRVGWFPANYVEEDYS [T5P], -0.401 ± 0.12.
On to KYFGTAKARYDFCARDRSELSLKEGDIIKITNKKGQQGWWRGEIYGRVGWFPANYVEEDYS [L31T], for which the abundance fitness was -0.133 ± 0.085.
For KYFGTAKARYDFCARDRSELSLKEGDIIKIVNKKGQQGWWRGEIYGRVGWFPANYVEEDYS [L31V], the abundance fitness was -0.285 ± 0.092.
Take KYFGTAKARYDFCARDRSELSLKEGDIIKILNKKGQQGWWRGEIYGRVGWFPANYVESDYS [E58S]: the abundance fitness is -0.362 ± 0.095.
In the case of KYFGTAKARYDFCARDRSELSLKEGDIIKILNKKGQQGWWRGEIYGRVGWFPANYVEFDYS [E58F] it was -0.297 ± 0.16; in that of KYFGTAKARYDFCARDRSELSSKEGDIIKILNKKGQQGWWRGEIYGRVGWFPANYVEEDYS [L22S], -0.852 ± 0.13.
With KYFGTAKARYDFCARDRSELSLKEGDIIKILNKKGQQTWWRGEIYGRVGWFPANYVEEDYS [G38T], the abundance fitness was -0.69 ± 0.14.
As for KYFGTAKARYDFCARDRSELSLKEGDIIKILNKKGQDGWWRGEIYGRVGWFPANYVEEDYS [Q37D], the abundance fitness is -0.008 ± 0.12.
Take KYFGTAKARYDFCARDRSELSLKEGDIIKILNKKGQQGNWRGEIYGRVGWFPANYVEEDYS [W39N]: the abundance fitness is -0.674 ± 0.15.
With KYFGTAKARYDFCARDRSELSLKEGDIIKILNKKGFQGWWRGEIYGRVGWFPANYVEEDYS [Q36F], the abundance fitness is -0.166 ± 0.15.
As to KYFGTAKARYDFCARDRSELSLKEGDIIKILNKKGCQGWWRGEIYGRVGWFPANYVEEDYS [Q36C], the abundance fitness was -0.258 ± 0.13.
For KYFGTMKARYDFCARDRSELSLKEGDIIKILNKKGQQGWWRGEIYGRVGWFPANYVEEDYS [A6M], the abundance fitness was -0.733 ± 0.19.
On to KYFGTAKARYDFCARDRSELSLKEGDIIKILNKKGQQGWWRGEIYGRVGWFCANYVEEDYS [P52C], for which the abundance fitness is -1.02 ± 0.34.
Take KYFGTAKARYDFCARDRSELSLKEGDIIKILNKKGQQGWWRGEIYGRVGWFWANYVEEDYS [P52W]: the abundance fitness is -0.943 ± 0.18.
For the variant KYFGTAKARYDFCARDRSELSLKEGDIIKILNKIGQQGWWRGEIYGRVGWFPANYVEEDYS [K34I], the abundance fitness was -0.424 ± 0.17.
